In test [1] the target is T1, human LILRB4 (human, UniProt Q8NHJ6 22-259, limits assumed).
T1 construct: also called leukocyte immunoglobulin-like receptor subfamily B member 4
Briefly: ELISA.

The target of a further test is T2, SR.
T2 construct: also called LILRB4 SR-hIgG1-Fc; stalk region of LILRB4 as Fc fusion
The test is described as follows: matrix of binding to LILRB4 domain-Fc fusions (FIG. 47); ELISA per paragraph 433.

In test [2] the target is T3, LILRB4 D1 (first Ig-like domain) Fc fusion protein (human, UniProt Q8NHJ6 27-118).
T3 construct: also called D1 of LILRB4; not shown: Fc part
T3 sequence (Q8NHJ6 27-118): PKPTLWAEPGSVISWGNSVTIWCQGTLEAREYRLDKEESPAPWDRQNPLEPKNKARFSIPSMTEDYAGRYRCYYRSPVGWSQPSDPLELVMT
Described as above.

The next test deals with T4, D2.
T4 construct: also called LILRB4 D2-hIgG1-Fc; second Ig-like domain of LILRB4 as Fc fusion
T4 sequence (fusion chain, as listed by the source): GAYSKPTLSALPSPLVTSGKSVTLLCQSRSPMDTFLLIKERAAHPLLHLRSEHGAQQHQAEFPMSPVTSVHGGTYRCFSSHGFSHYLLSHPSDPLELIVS
Described as above.

Test [3] concerns the target D2-SR-M15(139-219). Briefly: ELISA, mAb 216-2 titrated.
Test [4] deals with T5, D2-SR-M2(139-235).
T5 chain: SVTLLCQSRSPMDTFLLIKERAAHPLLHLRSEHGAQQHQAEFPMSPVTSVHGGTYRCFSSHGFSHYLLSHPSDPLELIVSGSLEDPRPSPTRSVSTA
The test is described as follows: ELISA, mAb 216-2 titrated.

Test [5] addresses T6, LILRB5 (human, UniProt O75023 24-458, limits assumed). Briefly: cross-reactivity ELISA (FIG. 46).
Test [6] addresses T7, LILRB1 (human, UniProt Q8NHL6 24-458, limits assumed).
T7 construct: also called leukocyte immunoglobulin-like receptor subfamily B member 1
The test is described as follows: cross-reactivity ELISA (FIG. 46).

In test [7] the target is T1, human LILRB4. Briefly: ELISA, OD450 against antibody concentration.
Test [8] concerns the target T8, D2-SR-Fc.
T8 construct: also called D2-SR-WT
Briefly: ELISA, mAb titrated on D2-SR-wt(119-259).

For test [9], the target named is D2-SR-M15(139-219). The test is described as follows: ELISA, mAb 8 titrated.
Test [10] addresses T5, D2-SR-M2(139-235). Briefly: ELISA, mAb 8 titrated.
In test [11] the target is T1, human LILRB4. The test is described as follows: ELISA, OD450 against antibody concentration. The source holds these as a separate data set.
The target in another test is D2-SR-M1(139-259). The test is described as follows: ELISA, mAb titrated on D2-SR-M1(139-259).
Test [12] has as its target T6, LILRB5. Briefly: cross-reactivity test on the LILRBs (ELISA per paragraph 433).
The target of test [13] is T7, LILRB1. The description is as above.
The next test concerns the target T9, LILRB2 (human, UniProt Q8N423 22-458, limits assumed).
T9 construct: also called leukocyte immunoglobulin-like receptor subfamily B member 2
The description is as above.

Test [14] addresses T10, LILRB3 (human, UniProt O75022 24-443, limits assumed).
T10 construct: also called leukocyte immunoglobulin-like receptor subfamily B member 3
The test is described as above.

Test [15] addresses T8, D2-SR-Fc. Briefly: ELISA, mAb titrated.
Test [16] addresses T10, LILRB3. Briefly: cross-reactivity ELISA (FIG. 46).
The target of a further test is D2-SR-M16(210-259). The test is described as follows: ELISA, mAb 139 titrated.
Chain of D2-SR-M16(210-259) (chain, as listed by the source): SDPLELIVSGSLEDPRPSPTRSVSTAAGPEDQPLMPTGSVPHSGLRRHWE
Test [17] concerns the target T1, human LILRB4. Briefly: ELISA, OD450 against antibody concentration. The source holds these as a separate data set.

T6 sequence (O75023 24-458 limits assumed): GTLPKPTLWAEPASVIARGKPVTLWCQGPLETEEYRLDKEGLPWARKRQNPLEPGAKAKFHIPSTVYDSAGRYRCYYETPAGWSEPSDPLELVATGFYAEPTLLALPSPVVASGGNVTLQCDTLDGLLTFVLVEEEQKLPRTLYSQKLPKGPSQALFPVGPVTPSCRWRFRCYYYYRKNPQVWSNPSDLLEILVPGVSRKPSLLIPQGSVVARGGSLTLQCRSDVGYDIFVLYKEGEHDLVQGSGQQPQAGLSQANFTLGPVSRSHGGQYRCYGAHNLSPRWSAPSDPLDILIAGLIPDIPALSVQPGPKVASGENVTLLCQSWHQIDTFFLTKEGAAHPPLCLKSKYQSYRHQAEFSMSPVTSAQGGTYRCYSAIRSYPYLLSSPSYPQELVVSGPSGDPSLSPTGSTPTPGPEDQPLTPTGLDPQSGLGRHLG
T7 sequence (Q8NHL6 24-458 limits assumed): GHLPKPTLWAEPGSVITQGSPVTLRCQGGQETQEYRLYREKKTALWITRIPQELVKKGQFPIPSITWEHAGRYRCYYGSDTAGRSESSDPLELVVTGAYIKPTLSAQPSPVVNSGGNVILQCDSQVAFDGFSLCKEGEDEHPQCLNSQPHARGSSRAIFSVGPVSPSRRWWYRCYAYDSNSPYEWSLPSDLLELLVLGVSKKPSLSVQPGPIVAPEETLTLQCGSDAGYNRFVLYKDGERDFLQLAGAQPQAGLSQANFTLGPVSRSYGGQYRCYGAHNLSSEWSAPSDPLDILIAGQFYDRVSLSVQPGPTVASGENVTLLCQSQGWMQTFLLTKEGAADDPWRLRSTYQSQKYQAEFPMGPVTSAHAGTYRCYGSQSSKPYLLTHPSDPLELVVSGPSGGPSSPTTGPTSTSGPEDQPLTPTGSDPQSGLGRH
T2 sequence (fusion chain, as listed by the source): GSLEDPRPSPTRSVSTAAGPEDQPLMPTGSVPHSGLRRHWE
T10 sequence (O75022 24-443 limits assumed): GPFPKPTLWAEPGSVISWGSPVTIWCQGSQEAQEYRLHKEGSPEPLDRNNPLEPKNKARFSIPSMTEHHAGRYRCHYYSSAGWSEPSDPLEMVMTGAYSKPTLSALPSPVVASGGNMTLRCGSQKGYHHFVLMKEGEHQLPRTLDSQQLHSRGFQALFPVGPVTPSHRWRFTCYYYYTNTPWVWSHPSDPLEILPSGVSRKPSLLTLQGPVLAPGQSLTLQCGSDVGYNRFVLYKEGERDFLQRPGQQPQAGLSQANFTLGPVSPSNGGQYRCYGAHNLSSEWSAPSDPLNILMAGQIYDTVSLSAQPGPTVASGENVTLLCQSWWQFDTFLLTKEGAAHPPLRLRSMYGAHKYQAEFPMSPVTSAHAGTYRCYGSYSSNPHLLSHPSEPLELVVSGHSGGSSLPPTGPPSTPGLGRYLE
T8 sequence (Q8NHJ6 119-259): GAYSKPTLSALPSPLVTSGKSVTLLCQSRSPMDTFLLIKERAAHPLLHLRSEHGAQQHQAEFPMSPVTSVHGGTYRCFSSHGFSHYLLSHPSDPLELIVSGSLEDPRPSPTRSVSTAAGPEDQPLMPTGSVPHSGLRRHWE
T9 sequence (Q8N423 22-458 limits assumed): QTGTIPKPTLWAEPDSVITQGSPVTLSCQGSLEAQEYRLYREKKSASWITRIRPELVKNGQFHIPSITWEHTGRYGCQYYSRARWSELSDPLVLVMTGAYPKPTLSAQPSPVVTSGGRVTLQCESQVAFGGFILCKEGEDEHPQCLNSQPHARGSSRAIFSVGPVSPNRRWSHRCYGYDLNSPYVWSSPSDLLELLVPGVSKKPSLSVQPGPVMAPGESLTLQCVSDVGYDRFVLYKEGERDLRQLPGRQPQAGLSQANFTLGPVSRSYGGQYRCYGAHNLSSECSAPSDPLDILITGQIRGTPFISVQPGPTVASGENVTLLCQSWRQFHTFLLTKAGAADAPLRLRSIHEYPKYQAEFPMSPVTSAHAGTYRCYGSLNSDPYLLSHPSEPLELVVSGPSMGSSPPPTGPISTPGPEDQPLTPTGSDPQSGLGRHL

B1: anti-LILRB4 rabbit monoclonal antibody #216-2 (antibody, V domains shown)
VH: EQSLKESGGRLVTPGTPLTLTCTVSGIDLSSYAMTWVRQVPGKGLEYIGFINIVGIAGYATWAKGRFTISKTSTTVDLKVTSPTTEDTATYFCARNWIRLDLWGQGTLVTVSS
VL: ELVMTQTPASVSAAVGGTVTISCQSSESLYKKNYLSWFQQKPGQPPKLLIYEASKLASGVPSRFSGSGSGTQFTLTISDVQCDDAASYYCLGDYTNGRDTTFGGGTEVEIK
For the molecule B1, the EC50 with human LILRB4 [1] was 64.7 pM; in the test with human LILRB4 [7], 0.0097 µg/mL. For the same molecule, the binding result in the test with SR was “binds”; in [2] it was “no binding”; in the test with D2 it was “no binding”; with D2-SR-M15(139-219) [3], “no binding (tested: 1000 ng/ml)”; with D2-SR-M2(139-235) [4] it was “no binding (tested: 1000 ng/ml)”; with LILRB5 [5], “binds”. Besides, the binding result with LILRB1 [6] is recorded as “binds”.

B2: anti-LILRB4 rabbit monoclonal antibody #8 (antibody, V domains shown)
VH: QSVKESGGGLVTPGGTLTLTCTASGFSLISYDMYWVRQAPGKGLEYIGIIYSDGYTFYATGAKGRITISRTSTTVDLKITSPTTEDTATYFCATNAFALWGQGTLVTISS
VL: ELDLTQTPSSVSAAVGGTVTISCQSSQNVYNNNWLVWLQQKPGQPPKRLIYTASSLASGVPSRFAGSGSATQFTLTISDLECGDAATYYCAGGYSGPIYTFGGGTEVEIK
notes: also called mAb 8
Regarding B2, the EC50 was 62.9 pM with human LILRB4 [1] and 0.00943 µg/mL with human LILRB4 [11]. Moreover, the binding result with SR is “binds”; in [2] it was “no binding”; in the test with D2, “no binding”; with D2-SR-M15(139-219) [9] it was “no binding (tested: 1000 ng/ml)”; with D2-SR-M2(139-235) [10], “no binding (tested: 1000 ng/ml)”; with LILRB5 [12], “no binding”. For the same molecule, the binding result with LILRB1 [13], with LILRB2 and with LILRB3 [14] was “no binding” throughout. For the same molecule, the “EC50 (read off the curve)” value with D2-SR-Fc [8] and with D2-SR-M1(139-259) was around 0.03 µg/mL throughout.

B3: anti-LILRB4 rabbit monoclonal antibody #139 (antibody, V domains shown)
VH: EQSLEESGGRLVTPGTPLTLTCTVSGFSLNSYAMAWVRQAPGKGLEWIGIIGLSTMTYYASWVNGRFTISKTSTTVDLKMTSLTTEDTATYFCVRNDVYWAFNLWGQGTLVTVSS
VL: ELDLTQTPSSVSAGVGGTVSISCQSSESVVNNHALSWYQQKPGQPPKLLIYKASTLASGVPSRFSGSGSGAQFTLTISGVQCDDAATYYCQGGFYSGISDYPFGGGTEVEIK
Regarding B3, the results for the EC50 with human LILRB4 [1] and in the test with human LILRB4 [17] were 83.2 pM and 0.0125 µg/mL, respectively. For the same molecule, the binding result with SR is reported as “no binding”; in test [2], “no binding”; in the test with D2 it was “binds”; in the test with LILRB5 [5] it was “binds”; in the test with LILRB3 [16], “binds”; with D2-SR-M16(210-259), “no binding (tested: 1000 ng/ml)”. For the same molecule, the binding result with LILRB1 [13] was “no binding”. Also, in the test with D2-SR-Fc [15], the “EC50 (read off the curve)” value was around 0.06 µg/mL.

(Values after patent US20200079851A1 (University of Texas, published 2020).)
